Measurements as given in PMC6997370, “Significant improvement in catalytic activity and enantioselectivity of a Phaseolus vulgaris epoxide hydrolase, PvEH3, towards ortho-cresyl glycidyl ether based on the semi-rational design” (Scientific Reports, 2020).
Residue numbers refer to the chain shown, from its start. Numbers in names are those of the source.

Legend:
[1] = substrate: Cc1ccccc1OC[C@@H]1CO1; assay: initial hydrolysis rate by HPLC, non-linear regression; assay type: biochemical, Phaseolus vulgaris; conditions: pH 7.0 phosphate 100 mM, 20 °C, 5% methanol, 1.5-15 mM substrate
Text: (§1) initial hydrolysis rate by HPLC, non-linear regression on PvEH3

[2] = substrate: Cc1ccccc1OC[C@H]1CO1; assay: as above; assay type: biochemical, Phaseolus vulgaris; conditions: pH 7.0 phosphate 100 mM, 20 °C, 5% methanol, 1.5-15 mM substrate
Text: as §1

B1: PvEH3 (Phaseolus vulgaris) (protein)
chain: MEGIQHKEVEVNGIKMHVAEKGEGPVVLFLHGFPELWYSWRHQILALSSRGYRAVAPDLRGYGDTEAPASMSSYSCFDIVGDLVALIDLLGVDQVFLVAHDWGAIIGWYLCMFRPDRVKAYVCLSVPLLHRNPEIRTVDAMRAMYGDDYYICRFQKPGEMEAQMAEVGTGYVLKNILTTRKPGPPIFPKGEYGTGFNPDMTNSLPSWLSQHDLAYYVSKFQKTGFTGPLNYYRNMNPNWELTAPWSGAKIKVPVKFITGDLDMVYTSLNMKEYIHGGGFKEDVPNLEEVIVQKGVAHFNNQEAAEEINTHIYDFINKF
notes: pET-28a(+), N-terminal 6xHis tag, E. coli BL21(DE3), Ni-NTA purified; catalytic Asp101, Tyr150, Tyr232
- Km [1]: 6.14 ± 0.22 mM
- Km [2]: 9.84 ± 0.28 mM
- kcat [2]: 1.12 ± 0.05 s⁻¹

B2: PvEH3 (Phaseolus vulgaris; E134K/T137P) (protein)
chain: B1 chain with E134K, T137P
notes: as for B1
- Km [1]: 3.29 ± 0.15 mM
- Km [2]: 5.40 ± 0.21 mM
- kcat [2]: 1.37 ± 0.06 s⁻¹
